Data taken from the supplement of paper PMC7877785.
± gives the uncertainty stated by the source.

Assay: self-splicing fitness, log relative to wild type (ln ratio); higher = more splicing; Tetrahymena group I intron in knt gene, E. coli kanamycin selection, DiMSum; sequences stand for … in CUCUCU…GGAGGGAAAAGUUAUCAGGCAUGCACCUGGUAGCUAGUCUUUAAACCAAUAGAUUGCAUCGGUUUAAAAGGCAAGACCGUCAAAUUGCGGGAAAGGGGUCAACAGCCGUUCAGUACCAAGUCUCAGGGGAAACUUUGAGAUGGCCUUGCAAAGGGUAUGGUAAUAAGCUGACGGACAUGGUCCUAACCACGCAGCCAAGUCCUAAGUCAACAGAUCUUCUGUUGAUAUGGAUGCAGUUCACAGACUAAAUGUCGGUCGGGGAAGAUGUAUUCUUCUCAUAAGAUAUAGUCGGACCUCUCCUUAAUGGGAGCUAGCGGAUGAAGUGAUGCAACACUGGAGCCGCUGGGAACUAAUUUGUAUGCGAAAGUAUAUUGAUUAGUUUUGGAGUACUCGUGGUCG
How it was run: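 A randomised library covering all eight P1ex-region intron nucleotides was built with the intron in the knt kanamycin-resistance gene on pET-22b(+) and held in E. coli BL21(DE3). Cells were grown overnight at 37°C or 30°C on LB agar, with or without 25 μg/mL kanamycin, plus 100 μg/mL carbenicillin, 50 μM IPTG and 0.2% rhamnose, and pooled colonies were amplicon-sequenced on an Illumina HiSeq 2500. DiMSum fitness is the error-weighted combination of wild-type-normalised replicate fold changes, kanamycin versus none.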

Row | Sequence | self-splicing fitness (ln) (30 °C) | self-splicing fitness (ln) (37 °C)
1 | GCUCAGCAAUAUUACGCGGA | -2.01 ± 0.26 | -2.63 ± 0.28
2 | GCUCAGCAAUAUUACGCUCA | -1.59 ± 0.11 | -0.171 ± 0.11
3 | GCUCAGCAAUAUUACGGAUA | -1.34 ± 0.12 | -0.254 ± 0.1
4 | GCUCAGCAAUAUUACGGAUG | -1.76 ± 0.094 | -1.12 ± 0.12
5 | GCUCAGCAAUAUUACGGCGG | -3.09 ± 0.29 | -1.46 ± 0.29
6 | GCUCAGCAAUAUUACGUAGG | 0.139 ± 0.052 | 0.32 ± 0.076
7 | GCUCAGCAAUAUUACGUCCG | -1.49 ± 0.14 | -1.13 ± 0.18
8 | GCUCAGCAAUAUUACGUCCU | -1.16 ± 0.11 | -0.818 ± 0.14
9 | GCUCAGCAAUAUUACGUGAA | -0.113 ± 0.063 | 0.231 ± 0.077
10 | GCUCAGCAAUAUUACGUGAU | -0.424 ± 0.072 | -0.373 ± 0.078
11 | GCUCAGCAAUAUUACGUUGA | -3.15 ± 0.18 | -2.42 ± 0.2
12 | GCUGAGCAAUAUUACGACUU | -1.64 ± 0.14 | 0.471 ± 0.14
13 | GCUGAGCAAUAUUACGAGAC | -3.06 ± 0.36 | 0.142 ± 0.23
14 | GCUGAGCAAUAUUACGAUCU | -1.69 ± 0.094 | -1.05 ± 0.1
15 | GCUGAGCAAUAUUACGAUGG | -2.25 ± 0.17 | -0.805 ± 0.12
16 | GCUGAGCAAUAUUACGAUGU | -2.49 ± 0.1 | -0.739 ± 0.12
17 | GCUGAGCAAUAUUACGAUUG | -4.26 ± 0.32 | -3.02 ± 0.22
18 | GCUGAGCAAUAUUACGCCGG | -1.99 ± 0.36 | –
19 | GCUGAGCAAUAUUACGCCUU | -1.98 ± 0.31 | -1.48 ± 0.44
20 | GCUGAGCAAUAUUACGCGCG | -0.818 ± 0.16 | -0.503 ± 0.19
21 | GCUGAGCAAUAUUACGCGCU | -3.05 ± 0.31 | -1.53 ± 0.36
22 | GCUGAGCAAUAUUACGCUCA | – | -2.75 ± 0.48
23 | GCUGAGCAAUAUUACGCUUG | -3.25 ± 0.29 | -1.57 ± 0.29
24 | GCUGAGCAAUAUUACGGAAG | -2.41 ± 0.24 | -0.395 ± 0.17
25 | GCUGAGCAAUAUUACGGAGC | -3.49 ± 0.18 | -1.7 ± 0.16

Row | Sequence | self-splicing fitness (ln) (30 °C) | self-splicing fitness (ln) (37 °C)
26 | GCUGAGCAAUAUUACGGAGG | -3.67 ± 0.38 | -1.14 ± 0.38
27 | GCUGAGCAAUAUUACGGCUA | -2.46 ± 0.19 | -1.66 ± 0.19
28 | GCUGAGCAAUAUUACGGGGU | – | -2.36 ± 0.28
29 | GCUGAGCAAUAUUACGGUGA | -1.35 ± 0.17 | -0.217 ± 0.17
30 | GCUGAGCAAUAUUACGUCGU | -2.05 ± 0.097 | -1.52 ± 0.12
31 | GCUGAGCAAUAUUACGUGCC | -3.37 ± 0.34 | –
32 | GCUGAGCAAUAUUACGUUAU | -2.96 ± 0.25 | -2.33 ± 0.28
33 | GCUGAGCAAUAUUACGUUGA | -2.57 ± 0.22 | -2.61 ± 0.22
34 | GCUUAGCAAUAUUACGACAA | -1.02 ± 0.14 | -0.462 ± 0.19
35 | GCUUAGCAAUAUUACGACGC | -0.0232 ± 0.13 | -0.351 ± 0.16
36 | GCUUAGCAAUAUUACGAGCA | -2.24 ± 0.14 | -0.963 ± 0.13
37 | GCUUAGCAAUAUUACGAGGG | -1.83 ± 0.11 | -1.36 ± 0.11
38 | GCUUAGCAAUAUUACGCAUC | -1.04 ± 0.069 | -0.56 ± 0.091
39 | GCUUAGCAAUAUUACGCAUU | -0.542 ± 0.095 | -0.78 ± 0.12
40 | GCUUAGCAAUAUUACGCCGA | -2.42 ± 0.23 | -1.87 ± 0.27
41 | GCUUAGCAAUAUUACGCGCC | -1.62 ± 0.45 | –
42 | GCUUAGCAAUAUUACGCUGC | -3.09 ± 0.35 | -2.38 ± 0.42
43 | GCUUAGCAAUAUUACGGCGC | -0.263 ± 0.14 | 0.127 ± 0.16
44 | GCUUAGCAAUAUUACGGUCA | -1.04 ± 0.13 | -0.448 ± 0.14
45 | GCUUAGCAAUAUUACGGUGC | -1.98 ± 0.12 | -0.681 ± 0.15
46 | GCUUAGCAAUAUUACGGUGU | -0.596 ± 0.052 | -0.0556 ± 0.068
47 | GCUUAGCAAUAUUACGUCGA | -1.67 ± 0.088 | -0.777 ± 0.11
48 | GCUUAGCAAUAUUACGUCUA | -1.96 ± 0.26 | -0.873 ± 0.2
49 | GCUUAGCAAUAUUACGUGGC | -3.12 ± 0.22 | -1.44 ± 0.4
50 | GGAAAGCAAUAUUACGAAAA | -1.04 ± 0.48 | –

Row | Sequence | self-splicing fitness (ln) (30 °C) | self-splicing fitness (ln) (37 °C)
51 | GGAAAGCAAUAUUACGAAGC | -1.07 ± 0.34 | -1.43 ± 0.34
52 | GGAAAGCAAUAUUACGACCA | -0.87 ± 0.11 | -0.318 ± 0.14
53 | GGAAAGCAAUAUUACGACGU | -0.135 ± 0.097 | 0.068 ± 0.1
54 | GGAAAGCAAUAUUACGAGCG | -0.482 ± 0.12 | 0.397 ± 0.12
55 | GGAAAGCAAUAUUACGAUUA | -0.527 ± 0.16 | 0.788 ± 0.16
56 | GGAAAGCAAUAUUACGCCGA | -0.608 ± 0.34 | -0.354 ± 0.24
57 | GGAAAGCAAUAUUACGCGAA | -1.66 ± 0.17 | -1.19 ± 0.13
58 | GGAAAGCAAUAUUACGCGGC | -2.98 ± 0.41 | -2.03 ± 0.45
59 | GGAAAGCAAUAUUACGCUGA | -2.94 ± 0.22 | -1.9 ± 0.16
60 | GGAAAGCAAUAUUACGCUGG | -2.2 ± 0.14 | -2.81 ± 0.26
61 | GGAAAGCAAUAUUACGCUUG | -2.12 ± 0.14 | -1.15 ± 0.21
62 | GGAAAGCAAUAUUACGGAUC | -0.0161 ± 0.075 | 0.0803 ± 0.09
63 | GGAAAGCAAUAUUACGGCCG | -0.751 ± 0.12 | -0.566 ± 0.16
64 | GGAAAGCAAUAUUACGGGAG | -3.54 ± 0.28 | -1.83 ± 0.19
65 | GGAAAGCAAUAUUACGGGCA | -1.2 ± 0.14 | -1.15 ± 0.18
66 | GGAAAGCAAUAUUACGGGUC | -3.66 ± 0.24 | -1.92 ± 0.14
67 | GGAAAGCAAUAUUACGGUAG | -3.02 ± 0.2 | -2.98 ± 0.18
68 | GGAAAGCAAUAUUACGGUCC | -2.06 ± 0.25 | –
69 | GGAAAGCAAUAUUACGUACA | -0.523 ± 0.14 | 6.9e-05 ± 0.15
70 | GGAAAGCAAUAUUACGUCAC | -2.13 ± 0.22 | -1.81 ± 0.32
71 | GGAAAGCAAUAUUACGUCGA | -1.84 ± 0.092 | -0.528 ± 0.12
72 | GGAAAGCAAUAUUACGUGAC | -2.97 ± 0.19 | -1.94 ± 0.24
73 | GGAAAGCAAUAUUACGUUAG | -3.14 ± 0.16 | -1.9 ± 0.15
74 | GGACAGCAAUAUUACGAAGC | -0.729 ± 0.079 | 0.158 ± 0.097
75 | GGACAGCAAUAUUACGAAGU | -1.34 ± 0.14 | -0.422 ± 0.14

Row | Sequence | self-splicing fitness (ln) (30 °C) | self-splicing fitness (ln) (37 °C)
76 | GGACAGCAAUAUUACGAAUU | -0.588 ± 0.076 | 0.11 ± 0.11
77 | GGACAGCAAUAUUACGACCG | -0.447 ± 0.16 | -0.054 ± 0.27
78 | GGACAGCAAUAUUACGAGGU | -3.35 ± 0.21 | -2.12 ± 0.14
79 | GGACAGCAAUAUUACGAUAU | -1.67 ± 0.08 | -0.201 ± 0.086
80 | GGACAGCAAUAUUACGAUGA | -1.08 ± 0.15 | -1.65 ± 0.14
81 | GGACAGCAAUAUUACGAUGU | -2.12 ± 0.055 | -0.961 ± 0.057
82 | GGACAGCAAUAUUACGAUUA | -0.666 ± 0.13 | -0.225 ± 0.12
83 | GGACAGCAAUAUUACGCGCA | -0.346 ± 0.061 | 0.497 ± 0.09
84 | GGACAGCAAUAUUACGCGCU | -1.92 ± 0.22 | -1.36 ± 0.34
85 | GGACAGCAAUAUUACGCGUC | -2.69 ± 0.22 | -2.78 ± 0.48
86 | GGACAGCAAUAUUACGCUCA | -0.215 ± 0.12 | -0.136 ± 0.15
87 | GGACAGCAAUAUUACGCUGG | -2.75 ± 0.28 | -2 ± 0.34
88 | GGACAGCAAUAUUACGGAAA | -2.04 ± 0.15 | -1.23 ± 0.14
89 | GGACAGCAAUAUUACGGAUC | -1.3 ± 0.11 | 0.26 ± 0.13
90 | GGACAGCAAUAUUACGGAUU | -1.33 ± 0.066 | 0.0211 ± 0.089
91 | GGACAGCAAUAUUACGGCAG | -3.87 ± 0.14 | -2.45 ± 0.1
92 | GGACAGCAAUAUUACGGCCC | -1.7 ± 0.46 | –
93 | GGACAGCAAUAUUACGGCGA | -0.0139 ± 0.1 | -0.0325 ± 0.11
94 | GGACAGCAAUAUUACGGCGU | -0.74 ± 0.097 | -0.627 ± 0.11
95 | GGACAGCAAUAUUACGGCUU | -0.36 ± 0.11 | 0.07 ± 0.11
96 | GGACAGCAAUAUUACGGGGC | -1.63 ± 0.092 | -1.72 ± 0.13
97 | GGACAGCAAUAUUACGGGUU | -3.03 ± 0.11 | -2.46 ± 0.21
